We go through 15 molecules from article PMC314469, “Protein Interaction Networks by Proteome Peptide Scanning” (PLoS Biology, 2004).

To fix the notation:
T1: Boi1 SH3 (BOI1_YEAST), P38041
T1 chain: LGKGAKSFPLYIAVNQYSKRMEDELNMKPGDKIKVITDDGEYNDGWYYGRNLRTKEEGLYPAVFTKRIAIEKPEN

T2: Boi2 SH3 (BOI2_YEAST), P39969
T2 chain: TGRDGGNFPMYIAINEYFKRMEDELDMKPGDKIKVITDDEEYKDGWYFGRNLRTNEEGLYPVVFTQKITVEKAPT

T3: Rvs167 SH3 (RV167_YEAST), P39743
T3 chain: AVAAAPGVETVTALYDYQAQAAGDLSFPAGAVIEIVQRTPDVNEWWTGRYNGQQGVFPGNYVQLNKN

T4: Yfr024 SH3 (LSB3_YEAST), P43603
T4 chain: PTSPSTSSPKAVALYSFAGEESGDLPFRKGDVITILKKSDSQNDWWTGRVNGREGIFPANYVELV

T5: Yhr016c SH3 (YSC84_YEAST), P32793
T5 chain: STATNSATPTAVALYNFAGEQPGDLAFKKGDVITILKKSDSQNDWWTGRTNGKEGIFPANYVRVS

In the first assay the target is T1, Boi1 SH3 (BOI1_YEAST), P38041. The assay is described as follows: SPOT array.
GTPPTTPLRTAQGI [YOR025W 379-392] displayed a normalised SPOT signal, Boehringer light units (BLU); mean over the file's lines of this peptide of 97.3.
Still for that read-out and setting: with GSEPIDPSKLEFAR [YLR191W 299-312] the figure was 57.5.
GWKPLRPIKLISWD [YJR126C 478-491] had a normalised SPOT signal, Boehringer light units (BLU); mean over the file's lines of this peptide of 59.3.
As for HGLPYKPSKLIRIF [YLR224W 329-342], the normalised SPOT signal, Boehringer light units (BLU); mean over the file's lines of this peptide stood at 80.3.
On the same count and under the same terms, for GRKPKDPSKPRQML [YML065W 331-344] the value was 147; for HEHPSGPLKKLFSD [YIL002C 144-157], 1.6.
Same read-out and setting: with GVYPSRPEKTYDYS [YBR026C 71-84] the figure was 111; with HGVPVVPSREVTIN [YER014W 440-453], 140.
On the same count and under the same terms, for GYDPTDPSRPRINE [YDR093W 1469-1482] the value was 98.5; for GRIPQLPNRDEMTA [YCR073C 1268-1281], 78.4; for GVPPNFPQRMMPPP [YKL204W 471-484], 58.2.
Molecule GYDPTDPNRPKVTK [YER166W 1426-1439] had a normalised SPOT signal, Boehringer light units (BLU); mean over the file's lines of this peptide of 108.
Still for that read-out and setting: with GSNPDLPNKSNLKF [YGR080W 307-320] the figure was 163; with GSSPVSPDKRPSWK [YGL156W 66-79], 69.6.
On the same count and under the same terms, for GVFPNSPVKQTTII [YPL023C 580-593] the value was 64.4.

The next assay has as its target T2, Boi2 SH3 (BOI2_YEAST), P39969. The assay is described as follows: SPOT array.
In turn, GTPPTTPLRTAQGI [YOR025W 379-392] registered a normalised SPOT signal, Boehringer light units (BLU); mean over the file's lines of this peptide of 36.
Molecule GSEPIDPSKLEFAR [YLR191W 299-312] had a normalised SPOT signal, Boehringer light units (BLU); mean over the file's lines of this peptide of 25.3.
In turn, GWKPLRPIKLISWD [YJR126C 478-491] yielded a normalised SPOT signal, Boehringer light units (BLU); mean over the file's lines of this peptide of 236.
Same read-out and setting: for HGLPYKPSKLIRIF [YLR224W 329-342] the value was 60.3.
GRKPKDPSKPRQML [YML065W 331-344] gave a normalised SPOT signal, Boehringer light units (BLU); mean over the file's lines of this peptide of 42.2.
Same read-out and setting: for HEHPSGPLKKLFSD [YIL002C 144-157] the value was -0.
The same measure, in the same setting: for GVYPSRPEKTYDYS [YBR026C 71-84] the value was 47.3; for HGVPVVPSREVTIN [YER014W 440-453], 33.6.
Molecule GYDPTDPSRPRINE [YDR093W 1469-1482] came in with a normalised SPOT signal, Boehringer light units (BLU); mean over the file's lines of this peptide of 34.7.
The same measure, in the same setting: with GRIPQLPNRDEMTA [YCR073C 1268-1281] the figure was 54.1; with GVPPNFPQRMMPPP [YKL204W 471-484], 84.6.
GYDPTDPNRPKVTK [YER166W 1426-1439] registered a normalised SPOT signal, Boehringer light units (BLU); mean over the file's lines of this peptide of 52.4.
On to GSNPDLPNKSNLKF [YGR080W 307-320], for which the normalised SPOT signal, Boehringer light units (BLU); mean over the file's lines of this peptide came out at 38.5.
Molecule GSSPVSPDKRPSWK [YGL156W 66-79] displayed a normalised SPOT signal, Boehringer light units (BLU); mean over the file's lines of this peptide of 18.6.
Same read-out and setting: with GVFPNSPVKQTTII [YPL023C 580-593] the figure was 97.9.

In another assay the target is T3, Rvs167 SH3 (RV167_YEAST), P39743. In words: SPOT array.
As for GTPPTTPLRTAQGI [YOR025W 379-392], the normalised SPOT signal, Boehringer light units (BLU); mean over the file's lines of this peptide came out at 197.
Same read-out and setting: for GSEPIDPSKLEFAR [YLR191W 299-312] the value was 33.
GWKPLRPIKLISWD [YJR126C 478-491] gave a normalised SPOT signal, Boehringer light units (BLU); mean over the file's lines of this peptide of 286.
Consider HGLPYKPSKLIRIF [YLR224W 329-342], for which the normalised SPOT signal, Boehringer light units (BLU); mean over the file's lines of this peptide came out at 67.7.
On the same count and under the same terms, with GRKPKDPSKPRQML [YML065W 331-344] the figure was 31.8.
For the molecule HEHPSGPLKKLFSD [YIL002C 144-157], the normalised SPOT signal, Boehringer light units (BLU); mean over the file's lines of this peptide is 13.3.
Still for that read-out and setting: for GVYPSRPEKTYDYS [YBR026C 71-84] the value was 12.9; for HGVPVVPSREVTIN [YER014W 440-453], 82; for GYDPTDPSRPRINE [YDR093W 1469-1482], 71.5.
The same measure, in the same setting: for GRIPQLPNRDEMTA [YCR073C 1268-1281] the value was 11900; for GVPPNFPQRMMPPP [YKL204W 471-484], 58.8.
The same measure, in the same setting: for GYDPTDPNRPKVTK [YER166W 1426-1439] the value was 35.5; for GSNPDLPNKSNLKF [YGR080W 307-320], 26.2; for GSSPVSPDKRPSWK [YGL156W 66-79], 50.3.
Molecule GVFPNSPVKQTTII [YPL023C 580-593] displayed a normalised SPOT signal, Boehringer light units (BLU); mean over the file's lines of this peptide of 4.

A further assay has as its target T4, Yfr024 SH3 (LSB3_YEAST), P43603. The assay is described as follows: SPOT array.
The molecule GTPPTTPLRTAQGI [YOR025W 379-392] returned a normalised SPOT signal, Boehringer light units (BLU); mean over the file's lines of this peptide of 5740.
On the same count and under the same terms, for GSEPIDPSKLEFAR [YLR191W 299-312] the value was 53.6.
As for GWKPLRPIKLISWD [YJR126C 478-491], the normalised SPOT signal, Boehringer light units (BLU); mean over the file's lines of this peptide amounted to 12000.
Turning to HGLPYKPSKLIRIF [YLR224W 329-342], the normalised SPOT signal, Boehringer light units (BLU); mean over the file's lines of this peptide was 747.
Still for that read-out and setting: for GRKPKDPSKPRQML [YML065W 331-344] the value was 268; for HEHPSGPLKKLFSD [YIL002C 144-157], 167; for GVYPSRPEKTYDYS [YBR026C 71-84], 470.
HGVPVVPSREVTIN [YER014W 440-453] returned a normalised SPOT signal, Boehringer light units (BLU); mean over the file's lines of this peptide of 555.
Molecule GYDPTDPSRPRINE [YDR093W 1469-1482] gave a normalised SPOT signal, Boehringer light units (BLU); mean over the file's lines of this peptide of -0.
On the same count and under the same terms, with GRIPQLPNRDEMTA [YCR073C 1268-1281] the figure was 11500; with GVPPNFPQRMMPPP [YKL204W 471-484], 1870; with GYDPTDPNRPKVTK [YER166W 1426-1439], 54.7.
GSNPDLPNKSNLKF [YGR080W 307-320] gave a normalised SPOT signal, Boehringer light units (BLU); mean over the file's lines of this peptide of 637.
The same measure, in the same setting: with GSSPVSPDKRPSWK [YGL156W 66-79] the figure was 223; with GVFPNSPVKQTTII [YPL023C 580-593], 269.

The target in a further assay is T5, Yhr016c SH3 (YSC84_YEAST), P32793. The assay is described as follows: SPOT array.
With GTPPTTPLRTAQGI [YOR025W 379-392], the normalised SPOT signal, Boehringer light units (BLU); mean over the file's lines of this peptide is 2770.
Still for that read-out and setting: for GSEPIDPSKLEFAR [YLR191W 299-312] the value was 37.9; for GWKPLRPIKLISWD [YJR126C 478-491], 407.
Still for that read-out and setting: with HGLPYKPSKLIRIF [YLR224W 329-342] the figure was 222.
The same measure, in the same setting: for GRKPKDPSKPRQML [YML065W 331-344] the value was 160; for HEHPSGPLKKLFSD [YIL002C 144-157], -0; for GVYPSRPEKTYDYS [YBR026C 71-84], 113.
HGVPVVPSREVTIN [YER014W 440-453]: the normalised SPOT signal, Boehringer light units (BLU); mean over the file's lines of this peptide was determined as 765.
As to GYDPTDPSRPRINE [YDR093W 1469-1482], the normalised SPOT signal, Boehringer light units (BLU); mean over the file's lines of this peptide stood at 257.
Same read-out and setting: with GRIPQLPNRDEMTA [YCR073C 1268-1281] the figure was 20900; with GVPPNFPQRMMPPP [YKL204W 471-484], 283; with GYDPTDPNRPKVTK [YER166W 1426-1439], 69.3.
Still for that read-out and setting: for GSNPDLPNKSNLKF [YGR080W 307-320] the value was 180; for GSSPVSPDKRPSWK [YGL156W 66-79], 493; for GVFPNSPVKQTTII [YPL023C 580-593], 116.
